For one test, the target named is T1, human CD33 protein (human, UniProt P20138 18-259).
T1 construct: extracellular domain; It is not tied to the protein used in the screen, so it is not used here; also called recombinant human CD33 protein; CD33 ECD proteins
Put plainly: SPR (BIACORE T200), antibody fragment captured by affinity tag, 100 nM human CD33 flowed over, estimate from one concentration; column KD; no unit printed on the sheet. The protocol: The scFv proteins in the supernatant were analyzed for their ability to bind to CD33 ECD proteins by ELISA and CD33-overexpressing MV4-11 cell lines by FACS. All binders were sequenced and some were subjected to for further characterization including affinity ranking by surface plasmon resonance (SPR) on a BIACORE® T200 instrument. The experiments were carried out as follows: the crude […] proteins were captured through an affinity tag onto the sensorchip. High-concentration (100 nM) of human CD33 flowed over the sensorchip surface, and was allowed to bind the antibody fragments. On-rate (kon) and off-rate (koff) were roughly calculated based on the association and dissociation of one antigen concentration, and were used to estimate the equilibrium dissociation constant (KD).

For another test, the target named is T2, Human CD33 C2 domain (human, UniProt P20138).
T2 construct: C2 domain only; also called C2-set Ig-like domain of human CD33
T2 sequence (P20138 145-228 limits assumed): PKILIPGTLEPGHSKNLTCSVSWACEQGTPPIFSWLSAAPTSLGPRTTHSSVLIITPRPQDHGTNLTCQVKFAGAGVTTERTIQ
The experiment in a line: +/- column 'Human CD33 C2 domain' of the drawn table; legend: cell binding properties; assay not named on the sheet.

These results are taken from patent US20250082754A1 (NANJING LEGEND BIOTECH, published 2025).

T1 sequence (P20138 18-259): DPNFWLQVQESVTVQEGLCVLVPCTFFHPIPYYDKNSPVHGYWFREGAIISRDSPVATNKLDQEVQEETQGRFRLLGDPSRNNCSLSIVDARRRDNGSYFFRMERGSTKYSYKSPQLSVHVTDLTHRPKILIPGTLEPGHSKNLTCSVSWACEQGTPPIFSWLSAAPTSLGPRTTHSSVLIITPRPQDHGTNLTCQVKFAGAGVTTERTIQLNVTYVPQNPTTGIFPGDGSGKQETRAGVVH

B1: AS188893 (scFv)
scFv (VL-linker-VH): SYELTQPSAVSVSLGQTARITCQGGNLGTSYVHWYQQKPGQAPVLVIYGDDSRPSGIPERFSGSSSGGTATLTISGAQAEDEADYYCQSYDSSSSVFGGGTHLTVLGGGGSGGGGSGGGGSQVQLQESGGGLVQPGGSLRLSCAASGFTFSNNWMYWVRQAPGKGLEWVSSIATGDGSTNSADSVKGRFTISRDNTKNMLYLQMNSLKSEDTALYYCAKGVNIDHDVGAGDYWGQGTQVTVSS
notes: Format as for f1; also called anti-CD33 IgG1 AS188893; AS188893 scFv
A word on the Kd: it is the constant that tells how readily two partners part at equilibrium. As to B1, the Kd in the test with human CD33 protein was 0.064 nM.

B2: AS138521 (scFv)
scFv (VL-linker-VH): SSELTQPAAVSVSLGETARITCQGGNFGSYYATWYQQKPGQAPVLVIYANSNRPSGIPERFSGSSSGGTATLTISGAQAEDEADYYCQSYDNSANAVFGGGTHLTVLGGGGSGGGGSGGGGSEVQLVESGGGLVQPGGSLRLSCAASGSTFWSYYMSWVRQAPGKGLEWVSSIYSDGSYAYYADSVKGRFTISRDNAKNTVYLQMNSLKSEDTALYYCATAPTPDGGSWLWYNYWGQGTQVTVSS
notes: Format as for f1; also called anti-CD33 IgG1 AS138521; AS138521 scFv
As to B2, the binding result with Human CD33 C2 domain is “no binding (tested: not given)”. Further, the Kd with human CD33 protein was 0.364 nM.

B3: AS199757 (scFv)
scFv (VL-linker-VH): NFMLTQPPSVSGSPGQKFTISCTGSSNNIGDNYVNWYQHLPGTAPKLLIYSNNNRASGVPDRFSGSKSGSSASLTITGLQAEDEADYYCSSWDDSLSGFVFGGGTHLTVLGGGGSGGGGSGGGGSAVQLVESGGGLVQPGGSLRLTCAASGFTFDNYGMSWVRQAPGKGLEWVSAIMWNGGTTYYAEPMKGRFTISRDNAKNTVYLQMNSLKSEDTAVYYCARHGSSWYAMDYWGQGTQVTVSS
notes: Format as for f1; also called anti-CD33 IgG1 AS199757; AS199757 scFv
For the molecule B3, the Kd with human CD33 protein is 1.5 nM.

B4: AS141962 (scFv)
scFv (VL-linker-VH): QAVLTQPSSVSGTPGQTVTISCAGTSSDVGSTNYVSWYRQLPGTAPKLLIYQVNYRASGIADRFSGSKSGNTASLTISGLQSADEADYYCASRSGNNFVFGGGTHLTVLGGGGSGGGGSGGGGSEVQLVESGGGLVQPGGSLRLSCAASGFTFSDFSIFWVRQAPGKGLEWVSSINFGGDRTYYADSVKGRFTISRNNAENTVYLQMNSLKAEDTAAYHCVTTAVALADCSGGCYTPGAFNAWGQGTLVTISS
notes: Format as for f1; also called anti-CD33 IgG1 AS141962; AS141962 scFv
Turning to B4, in the test with Human CD33 C2 domain, the binding result is “no binding (tested: not given)”. Also, the Kd with human CD33 protein was 3.06 nM.

B5: AS200728C (scFv)
scFv (VL-linker-VH): QAVVTQLSSMSGSPGQTVTITCTGSSSNIGGGYYLSWYQQLPGTAPKLLIYNVNNRASGVPNRFSGSKTGSLASLTITGLQAEDEADYYCGSYDESLSYVFGGGTHLTVLGGGGSGGGGSGGGGSQVQLVESGGGLVQPGGSLRVSCAASGFTFKNYYMGWVRQAPGKGLEWISGINSGGEVTTYADSVKDRFTISRDNAKNTLYLQMNSLKPDDTALYYCAGGEGSSWYPDYYYGNGYWGEGTLITVSS
notes: Format as for f1; also called anti-CD33 IgG1 AS200728C; AS200728C scFv
In the case of B5, in the test with human CD33 protein, the Kd is 0.24 nM.

B6: AS142096 (scFv)
scFv (VL-linker-VH): NFMLTQPSAVSVSLGETARITCQGGKVGSNYASWYQQKPGQAPVLVIYGDDSRPSGIPERFSGSSSGGTATLTISGAQAEDEADYYCQSYDSSGYNAVFGGGTHLTVLGGGGSGGGGSGGGGSQVQLVESGGGLVQPGGSLRLSCAASGFTFFSYYMSWVRQAPGKGLEWVSSIYSDGSNTYYADSVKGRFTISRDNAKNTVYLQMNSLKSEDTALYYCATAGYYSDYVEFEYWGQGILVTVSS
notes: Format as for f1; also called anti-CD33 IgG1 AS142096; AS142096 scFv
In the case of B6, in the test with Human CD33 C2 domain, the binding result is “no binding (tested: not given)”. Further, the Kd in the test with human CD33 protein is 0.27 nM.

B7: AS141996 (scFv)
scFv (VL-linker-VH): SSELTQPSAVSVSLGETARITCQGGNVGSSYASWYQQKPGQAPVLVIYEDSERPSGIAERFSGSSSGGTATLTISGAQAEDEADYYCQSADNNGAVFGGGTHLTVLGGGGSGGGGSGGGGSEVQVVESGGGLVQPGGSLRLSCAGSGFTFSSYAMSWVRQAPGKGLEWVSTINSGGGSTYYADSVKGRFTISRDNAKNTLYLQLNSLKTEDTAMYYCANHLLIIYSDYDVRGSEAWETWGQGTLVTVSS
notes: Format as for f1; also called anti-CD33 IgG1 AS141996; AS141996 scFv
For the molecule B7, the binding result with Human CD33 C2 domain was “no binding (tested: not given)”. The Kd in the test with human CD33 protein is 0.0624 nM.

B8: AS141837 (scFv)
scFv (VL-linker-VH): SSELTQPSAVSVSLGETARITCQGVNVGSYYASWYQQKPGQAPVLVIYGNSNRPSGIPERFSGSKSGGTATLTISGAQAEDEADYYCQSADSSAFNAVFGGGTHLTVLGGGGSGGGGSGGGGSQVQLVQSGGGLVQPGGSLRLSCAASGFTFSSYDMTWVRQAPGKGLEWVSAVNSGGGTTYYADSVKGRFTISRDNAKNTLYLQMNSLKTEDTAVYYCATAIEREEDPLWVGPEYNTWGQGTQVTVSS
notes: Format as for f1; also called anti-CD33 IgG1 AS141837; AS141837 scFv
Regarding B8, in the test with Human CD33 C2 domain, the binding result is reported as “no binding (tested: not given)”. Besides, the Kd in the test with human CD33 protein was 21.4 nM.

B9: AS199911 (scFv)
scFv (VL-linker-VH): SYELTQPSALSVTLGQSAKITCQGDNFETTYVHWYQQKPGQAPVLVIYNDDSRPSGIPERFSGSNSGDRATLTISGAQAEDEGDYYCQSADTSGNAYVFGGGTHLTVLGGGGSGGGGSGGGGSAVQLVESGGGLVQPGGSLRLSCAASGFTFSRSDMSWVRQAPGKGLEWVSYINSGGGTNRYADSVKARFTIFRDNAKNTLYLQMNTLKPEDTAVYYCAKSGFDSDWIFGYLERWGQGTLVTVSS
notes: Format as for f1; also called anti-CD33 IgG1 AS199911; AS199911 scFv
For B9, the equilibrium dissociation constant (Kd) with human CD33 protein is 0.35 nM.

B10: AS141869 (scFv)
scFv (VL-linker-VH): NFMLTQPSAVSVSLGETARITCQGGNVGTSYASWYQQKPGQAPVLVIYGNSNRPSGIPERFSGSKSGGTATLTISGAQAEDEADYYCQSADSRGYVAFGGGTHLTVLGGGGSGGGGSGGGGSQVQLQESGGGLVQPGGSLRLSCAASGFTFSSYDITWVRQAPGKGLEWVSAINSGGNSTYYADSVKGRFTISRDNAKNTLYLQMNSLKTEDTAVYYCATAIEREEDPLWVGPEYNYWGQGTQVTVSS
notes: The legend calls it anti-CD33 IgG1; also called anti-CD33 IgG1 AS141869; AS141869 scFv
Consider B10, for which, in the test with Human CD33 C2 domain, the binding result is “no binding (tested: not given)”. In addition, the Kd with human CD33 protein was 11.5 nM.

B11: AS199772 (scFv)
scFv (VL-linker-VH): SYELTQSPSVSVALRQAAKITCRGDNIETKYAYWYQQKPGQSPLLVIYKDDNRPSGIPERFSGSNSGNMATLTISGAQAEDEADYYCQVWDSSANWVFGGGTHLTVLGGGGSGGGGSGGGGSQVQLQESGGGLVQPGGSLRLSCAASGFTFSSYWMYWVRQAPGKGLEWVSAMNTGGGSTYYGDSVKGRFTVSRDNAKNTLALQMNSLKPEDTALYYCARSWGGMYSGGYYEYSGMDYWGKGTLVTVSS
notes: Format as for f1; also called anti-CD33 IgG1 AS199772; AS199772 scFv
Consider B11, for which the dissociation constant Kd with human CD33 protein is 0.067 nM.

B12: AS141974 (scFv)
scFv (VL-linker-VH): NFMLTQPAAVSVSLGETARITCQGGNFGSYYASWYQQKPGQAPVLVIYANSNRPSGIPERFSGSSSGGTATLTISGAQAEDEADYYCQSYDSSAAVFGGGTHLTVLGGGGSGGGGSGGGGSQVQLQESGGGLVQPGGSLRLSCAASGFTFSSYAMSWVRQAPGKGLEWVSAINSGGGSTYYADSVKGRFTISRDNAKNTLYLQLNSLKTEDTAMYYCAKEGGLYYSDYDELYFGYWGQGTQVTVSS
notes: Format as for f1; also called anti-CD33 IgG1 AS141974; AS141974 scFv
With B12, the binding result with Human CD33 C2 domain is “no binding (tested: not given)”. Moreover, in the test with human CD33 protein, the Kd was 1.79 nM.

B13: AS187809 (scFv)
scFv (VL-linker-VH): EIVMTQSPSSVTASAGEKVTINCKSSQSVLYSSNQKSYLAWYQQRPGQSPRLLIYYASTRESGVPDRFSGSGSTTDFTLTISSVQPEDAAVYYCQQGYSAPVTFGQGTKLELKGGGGSGGGGSGGGGSQVQLQESGGGLVQPGGSLRLSCAASGFTFSRYYMSWVRQAPGKGLEWVSSIYSDGSNTYYTDSVKGRFTISRDNAKNTVYLQMNSLKSEDTAQYYCATDRDCSGIHCGAFGYWGQGTQVTVSS
notes: Format as for f1; also called anti-CD33 IgG1 AS187809; AS187809 scFv
As to B13, the Kd in the test with human CD33 protein is 1.08 nM.

B14: AS142077 (scFv)
scFv (VL-linker-VH): SYELTQPSAMSVSLGETTRITCQGGNIESSYASWYQQKPGQAPALVIYEDSERPSRIPERFSGSSSGGTATLTISGAQAEDEADYYCQSADSSGYNPVFGGGTHLTVLGGGGSGGGGSGGGGSQVQLVESGGGLVQPGGSLRLSCAASGFTFSSYAMSWVRQAPGKGLEWVSGINSGGGSTYYADSVKGRFTISRDNAKNTLYLQLNSLKTEDTAMYYCAKHLLIIYSDYDVRGSEALDAWGQGTLVTVSS
notes: Format as for f1; also called anti-CD33 IgG1 AS142077; AS142077 scFv
Consider B14, for which the binding result with Human CD33 C2 domain is “no binding (tested: not given)”. Besides, the Kd with human CD33 protein is 0.348 nM.
